What was measured:
VISTA+ BMDMs = assay: VISTA membrane expression on macrophages after Ca2+ flux modulation; format: cell-based, mouse
Text: (§1) Flow cytometry staining and analysis.

[1] = system: early-stage breast cancer; assay: Retrospective analysis of medications in stage 0 or 1 breast cancer patients; format: in vivo, human; settings: poor outcome = recurrence or death; for estimated patient number with poor outcome: based on estimated 2.54% of patients taking the medication; for actual patient number with poor outcome: patients taking the medication
Text: To explore whether some medications have impact on early-stage breast cancer recurrence, we performed a retrospective analysis of the most commonly prescribed medications took by patients with stage 0 or stage 1 breast cancer. Stage 0 and 1 breast cancers are highly treatable early-stage breast cancers and generally have very good prognosis in the first five years. Typically, surgery, radiation, or a combination of the two are the standard treatments. Hormone therapy, depending on the type of cancer cells and additional risk factors, is also an option. To rule out potential impact of the medications on therapies, patients who received treatment other than surgeries were excluded. 1652 patients diagnosed with stage 0 or 1 breast cancer at MDACC between 2016-2021 were enrolled in the study. 29 patients have been diagnosed with cancer recurrence (1.76%) and 3 out of 29 patients were deceased by 2021. Another 13 patients were also deceased, but whether cancer is the cause of their deaths is not clear. Altogether, total 42 patients (2.54%) have poor clinical outcome, including cancer recurrence or death. We first analyzed the 50 most prescribed drugs in USA which include many common drugs such as Aspirin, Simvastatin, and Metformin. About half of the drugs (24) were took by >100 patients based on their electric health record. To cover more medications, we further expanded the drug list by adding the top 20 over-the-counter medicines (OTC) sold on AMAZON website. To explore potential impact of medications on cancer recurrence and patient mortality, we compared the predicated patient numbers with poor clinical outcomes (X-axis) based on the estimated 2.54% (the ratio of total patients with poor outcome to total number of patients) versus the actual patient number with poor outcomes (Y-axis) of each medication (FIG. 15A). Most medications show limited impacts on patients' outcome, including Aspirin (8.5 vs. 8, estimated vs. actual patient number with poor outcome) and Metformin (3.5 vs 4). […] Instead, antihistamine may intercept or delay early-stage breast cancer progression by enhancing immune surveillance.

melanoma patients = assay: Retrospective Epic SlicerDicer analysis of anti-PD-1/PD-L1-treated melanoma patients; format: in vivo, human; settings: patients taking the medicine during anti-PD-1/PD-L1 treatment vs those who did not
Procedure: Epic SlicerDicer software analysis. Our retrospective study was conducted on melanoma patients encountered during 2016-2017 at The University of Texas MD Anderson Cancer Center, which draws a diverse range of local, regional, national, and international patients. The study population consisted of all melanoma patients with of International Classification of Diseases (ICD) code C43 (10th version). Anonymized aggregate-level data were collected using the SlicerDicer function within MD Anderson Epic electronic medical records. Institutional Review Board approval was therefore waived. Using the Epic SlicerDicer, we identified 9922 patients with a visit diagnosis, billing diagnosis, or active problem list with malignant skin of melanoma (ICD-10-CM:C43, which includes all subgroups). EPIC SlicerDicer was used to further identify 878 of these patients who received anti-PD-1 antibodies (pembrolizumab, nivolumab, or cemiplimab) or anti-PD-L1 antibodies (durvalumab, atezolizumab, or avelumab) treatment during the study period. […] The estimated patient deaths of each subgroup were calculated based on the patient number of each subgroup and the average patient death rate (39%, based on deceased patients out of total patients analyzed). […] The survival time was calculated as the days between the two dates. […]

peritoneal macrophages = settings: histamine 10 mM, vs vehicle-treated
Procedure: Macrophage polarization and stimulation. To polarize macrophages toward an M1-like phenotype, we stimulated PBMC-derived macrophages or BMDMs with IFN-g (20 ng/ml, PeproTech) for 48 hours. To induce an M2-like phenotype, we treated THP-1-derived macrophages or BMDMs with IL-4 (20 ng/mL, PeproTech) for 48 hours. […] To stimulate macrophages with tumor cell-derived conditioned medium (TCM), we cultured BMDMs with complete medium containing 50% TCM (volume).
Flow cytometry staining and analysis. Live single cells were sub-gated by staining with Fixable Viability Dye eFluor 450 (eBioscience) for 15 minutes at 4° C. For blocking of Fc receptors, cells were then pre-incubated with purified anti-CD16/32 antibody (clone 93, BioLegend) for 10 minutes on ice before immunostaining. After one wash with flow cytometry buffer, cells were incubated with appropriate dilutions of various combinations of the following antibodies. […]

CD8+ T cells = assay: In vitro co-culture of macrophages with T cells; format: cell-based, mouse; settings: T cells co-cultured with histamine-treated macrophages vs vehicle-treated
Procedure: In vitro co-culture with T cells. Spleens from wild-type C57BL/6 or BALB/c mice were harvested and filtered through a […] cell strainer to generate a single-cell suspension. After red blood cell lysis, splenocytes were counted and plated in complete Roswell Park Memorial Institute 1640 medium supplemented with […] b-mercaptoethanol and 10 mM HEPES onto 12-well plates coated with […] anti-CD3 (clone 145-2C11, BioLegend) and […] anti-CD28 (clone 37N, BioLegend) antibodies. Spleen T cells were activated for 48 hours before co-culture with macrophages. To educate the macrophages, we co-cultured naïve BMDMs with tumor cells at a ratio of 1:1 or with tumor cell-derived conditioned medium for 48 hours. Macrophages were seeded with activated T cells at a ratio of 5:1. After co-culture for another 24 or 48 hours, T cells were collected for flow cytometry analysis.
as §1

colon cancer patients = assay: Responses of anti-PD-1-treated colon cancer patients by plasma histamine; format: in vivo, human; settings: patient count, colon cancer (n = 12)
Text: (§2) Human samples. The untreated breast cancer samples including tumor tissues and blood plasma from TNBC patients who had undergone a mastectomy before therapy, normal breast tissues from women undergoing cosmetic breast surgery, and blood plasma from colon cancer patients and healthy subjects were collected at the First Affiliated Hospital of Chongqing Medical University. The blood plasma from patients with advanced lung (n=48), colon (n=12) and breast (n=10) cancers were collected pre-anti-PD1 treatment (patients were treated with Camrelizumab between Dec. 24, 2019 and Feb. 27, 2021) at the Beijing Friendship Hospital of Capital Medical. Best percentage change in the sum of the diameters for the selected target lesion is defined by Response Evaluation Criteria in Solid Tumors (RECIST version 1.1) on minimum 2 computed tomographic scans before treatment and 1 computed tomographic scan during treatment. The use of pathological specimens, as well as the review of all pertinent patient records, were approved by the Research Ethics Committee of the First Affiliated Hospital of Chongqing Medical University (project approval number 1005367 2017-012) and the Research Ethics Committee of Beijing Friendship Hospital of Capital Medical University (project approval number 2017-P2-141-01), and written informed consent were obtained from each participant and/or their legal representative, as appropriate.
(§3) Enzyme-linked immunosorbent assay (ELISA). The levels of histamine in cell culture supernatant, serum/plasma, and tissues were detected by Histamine ELISA kits (ENZ-KIT140-0001, Enzo; ab213975, Abcam) according to the manufacturer's instructions.

lung cancer patients = assay: Responses of anti-PD-1-treated lung cancer patients by plasma histamine; format: in vivo, human; settings: patient count, lung cancer (n = 48)
Text: as §2, §3

[2] = system: lung cancer, breast cancer, and colon cancer patients; assay: Basket trial of anti-PD-1 treatment, response by pre-treatment plasma histamine (n=70); format: in vivo, human
Text: as §2, §3

breast cancer patients = assay: Responses of anti-PD-1-treated breast cancer patients by plasma histamine; format: in vivo, human; settings: patient count, breast cancer (n = 10)
Text: as §2, §3

[3] = Histamine Low (<0.3 ng/ml), no patients in group
[4] = Histamine Medium (0.3-0.6 ng/ml)
[5] = patients with high levels of plasma histamine (>0.6 ng/mL)
[6] = patients with low levels of plasma histamine (<0.3 ng/mL)

CC(=O)OCOC(=O)CN(CC(=O)OCOC(C)=O)c1ccccc1OCCOc1ccccc1N(CC(=O)OCOC(C)=O)CC(=O)OCOC(C)=O [BAPTA-AM]
HRH1-mediated membrane VISTA expression (VISTA+ BMDMs; WT TAMs, BAPTA-AM): reduced HRH1-mediated membrane VISTA expression

CN(C)C(=N)N=C(N)N [Metformin]
estimated patient number with poor outcome [1]: 3.5 | actual patient number with poor outcome [1]: 4

CC1(C)S[C@@H]2[C@H](NC(=O)[C@H](N)c3ccccc3)C(=O)N2[C@H]1C(=O)O [ampicillin]
death rate (melanoma patients): increased death rate

CC(=O)Oc1ccccc1C(=O)O [aspirin]
death rate (melanoma patients): reduced death rate | estimated patient number with poor outcome [1]: 8.5 | actual patient number with poor outcome [1]: 8

NCCc1c[nH]cn1 [histamine]
M2-like marker CD206 and M1-like marker MHCII (peritoneal macrophages): increased M2-like marker CD206 and reduced M1-like marker MHCII | T cell activation (CD8+ T cells): significantly suppressed T cell activation

C[C@H](CCC(=O)O)C[C@H](C)C[C@H](C)C(=O)/C=C(\O)[C@H](C)C[C@H](C)C/C=C/[C@@H](C)[C@@H](O)[C@@H](C)[C@@H](O)C[C@@H]1CC[C@@](C)([C@H]2CC[C@@](C)([C@@H](C)O)O2)O1 [ionomycin]
cell-surface VISTA expression (VISTA+ BMDMs; HRH1-/- TAMs, ionomycin): increased cell-surface VISTA expression

B1: Camrelizumab (antibody, chains of the INN, looked up, V domains shown)
VH: EVQLVESGGGLVQPGGSLRLSCAASGFTFSSYMMSWVRQAPGKGLEWVATISGGGANTYYPDSVKGRFTISRDNAKNSLYLQMNSLRAEDTAVYYCARQLYYFDYWGQGTTVTVSS
VL: DIQMTQSPSSLSASVGDRVTITCLASQTIGTWLTWYQQKPGKAPKLLIYTATSLADGVPSRFSGSGSGTDFTLTISSLQPEDFATYYCQQVYSIPWTFGGGTKVEIK
notes: anti-PD1 treatment of the basket-trial patients (Camrelizumab)
Treatment response PD (colon cancer patients; Histamine High (≥0.6 ng/ml)): 4 | Treatment response PR (colon cancer patients; Histamine High (≥0.6 ng/ml)): 2 | Treatment response SD (colon cancer patients; Histamine High (≥0.6 ng/ml)): 2 | Treatment response PD (colon cancer patients; [3]): 0 | Treatment response PR (colon cancer patients; [3]): 0 | Treatment response SD (colon cancer patients; [3]): 0 | Treatment response PD (colon cancer patients; [4]): 1 | Treatment response PR (colon cancer patients; [4]): 2 | Treatment response SD (colon cancer patients; [4]): 1 | Treatment response CR (lung cancer patients; Histamine High (≥0.6 ng/ml)): 0 | Treatment response PD (lung cancer patients; Histamine High (≥0.6 ng/ml)): 6 | Treatment response PR (lung cancer patients; Histamine High (≥0.6 ng/ml)): 2 | Treatment response SD (lung cancer patients; Histamine High (≥0.6 ng/ml)): 3 | Treatment response CR (lung cancer patients; Histamine Low (<0.3 ng/ml)): 1 | Treatment response PD (lung cancer patients; Histamine Low (<0.3 ng/ml)): 2 | Treatment response PR (lung cancer patients; Histamine Low (<0.3 ng/ml)): 9 | Treatment response SD (lung cancer patients; Histamine Low (<0.3 ng/ml)): 6 | Treatment response CR (lung cancer patients; [4]): 0 | Treatment response PD (lung cancer patients; [4]): 6 | Treatment response PR (lung cancer patients; [4]): 7 | Treatment response SD (lung cancer patients; [4]): 6 | disease control rate (DCR) [2, 5]: 44% | overall response rate (ORR) [2, 5]: 16% | disease control rate (DCR) [2, 6]: 88.3% | overall response rate (ORR) [2, 6]: 55.6% | Treatment response PD (breast cancer patients; Histamine High (≥ 0.6 ng/ml)): 4 | Treatment response PR (breast cancer patients; Histamine High (≥ 0.6 ng/ml)): 0 | Treatment response SD (breast cancer patients; Histamine High (≥ 0.6 ng/ml)): 2 | Treatment response PD (breast cancer patients; [3]): 0 | Treatment response PR (breast cancer patients; [3]): 0 | Treatment response SD (breast cancer patients; [3]): 0 | Treatment response PD (breast cancer patients; [4]): 1 | Treatment response PR (breast cancer patients; [4]): 1 | Treatment response SD (breast cancer patients; [4]): 2

Reference: patent US20250242017A1, “HISTAMINE AND HRH1 SIGNALING ACTIVITY AS BIOMARKERS AND ASSOCIATED METHODS” (Board of Regents, The University of Texas System, priority 2022, published 2025)
